Data as given in patent US20030166232A1 (LUDWIG INSTITUTE FOR CANCER RESEARCH, published 2003).

T1: GST-PDZ 2-3 (glutathione S-transferase fused to PTPL1 residues 1340-1579) (Homo sapiens (Human), UniProt Q12923 1359-1598)
T1 construct: not shown: glutathione S-transferase (GST) encoded by the expression vector pGEX1 lambda T (Pharmacia)
T1 sequence: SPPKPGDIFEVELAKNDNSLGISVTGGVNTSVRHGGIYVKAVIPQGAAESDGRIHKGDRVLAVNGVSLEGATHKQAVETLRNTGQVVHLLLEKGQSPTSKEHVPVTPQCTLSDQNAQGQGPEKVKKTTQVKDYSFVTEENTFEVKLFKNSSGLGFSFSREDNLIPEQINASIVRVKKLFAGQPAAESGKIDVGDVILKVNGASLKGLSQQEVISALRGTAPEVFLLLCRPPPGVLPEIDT

T2: GST-PDZ 5 (glutathione S-transferase fused to PTPL1 residues 1856-1960) (Homo sapiens (Human), UniProt Q12923 1875-1979)
T2 construct: not shown: glutathione S-transferase (GST) encoded by the expression vector pGEX1 lambda T (Pharmacia)
T2 sequence: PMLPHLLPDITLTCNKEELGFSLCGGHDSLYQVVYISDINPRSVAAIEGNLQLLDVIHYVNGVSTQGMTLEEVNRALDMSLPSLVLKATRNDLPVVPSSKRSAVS

B1: PARG (PTPL1 Associated RhoGAP), the 150 kDa component from PC-3 cell lysate (other)
chain: MIAHKQKKTKKKRAWASGQLSTDITTSEMGLKSLSSNSIFDPDYIKELVNDIRKFSHILLYLKEAIFSDCFKEVIHIRLEELLRVLKSIMNKHQNLNSVDLQNAAEMLTAKVKAVNFTEVNEENKNDLFQEVFSSIETLAFTFGNILTNFLMGDVGNDSFLRLPVSRETKSFENVSVESVDSSSEKGNFSPLELDNVLLKNTDSIELALSYAKTWSKYTKNIVSWVEKKLNLELESTRNMVKLAEATRTNIGIQEFMPLQSLFTNALLNDIESSHLLQQTIAALQANKFVQPLLGRKNEMEKQRKEIKELWKQEQNKMLEAENALKKAKLLCMQRQDEYEKAKSSMFRAEEEHLSSSGGLAKNLNKQLEKKRRLEEEALQKVEEADELYKVCVTNVEERRNDVENTKREILAQLRTLVFQCDLTLKAVTVNLFHMQHLQAASLADRLQSLCGSAKLYDPGQEYSEFVKATNSTEEEKVDGNVNKHLNSSQPSGFGPANSLEDVVRLPDSSNKIEEDRCSNSADITGPSFIRSWTFGMFSDSESTGGSSESRSLDSESISPGDFHRKLPRTPSSGTMSSADDLDEREPPSPSETGPNSLGTFKKTLMSKAALTHKFRKLRSPTKCRDCEGIVVFQGVECEECLLVCHRKCLENLVIICGHQKLPGKIHLFGAEFTLVAKKEPDGIPFILKICASEIENRALCLQGIYRVCGNKIKTEKLCLALENGMHLVDISEFSSHDICDVLKLYLRQLPEPFILFRLYKEFIDLAKEIQHVNEEQETKKNSLEDKKWPNMCIEINRILLKSKDLLRQLPASNFNSLHFLIVHLKRVVDHAEENKMNSKNLGVIFGPSLIRPRPQTAPITISSLAEYSNQARLVEFLITYSQKIFDGSLQPQDVMCSIGVVDQGCFPKPLLSPEERDIERSMKSLFFSSKEDIHTSESESKIFERATSFEESERKQNALGKCDACLSDKAQLLLDQEAESASQKIEDGKAPKPLSLKSDRSTNNVERHTPRTKIRPVSLPVDRLLLASPPNERNGRNMGNVNLDKFCKNPAFEGVNRKDAATTVCSKFNGFDQQTLQKIQDKQYEQNSLTAKTTMIMPSALQEKGVTTSLQISGDHSINATQPSKPYAEPVRSVREASERRSSDSYPLAPVRAPRTLQPQHWTTFYKPHAPIISIRGNEEKPASPSAACPPGTDHDPHGLVVKSMPDPDKASACPGQATGQPKEDSEELGLPDVNPMCQRPRLKRMQQFEDLEDEIPQFV
notes: In the pull-down it was the endogenous, 35S-labelled 150 kDa protein in PC-3 cell lysate; also called 150 kDa protein
B2: GST-PDZ 3 (glutathione S-transferase fused to PTPL1 residues 1469-1579) (other)
chain: VKDYSFVTEENTFEVKLFKNSSGLGFSFSREDNLIPEQINASIVRVKKLFAGQPAAESGKIDVGDVILKVNGASLKGLSQQEVISALRGTAPEVFLLLCRPPPGVLPEIDT
notes: not shown: glutathione S-transferase (GST) encoded by the expression vector pGEX1 lambda T (Pharmacia)
B3: GST-PDZ 1 (glutathione S-transferase fused to PTPL1 residues 1066-1166) (other)
chain: SSPEREITLVNLKKDAKYGLGFQIIGGEKMGRLDLGIFISSVAPGGPADFHGCLKPGDRLISVNSVSLEGVSHHAAIEILQNAPEDVTLVISQPKEKISKV
notes: as for B2

Key:
Experiment in all cases: GST pull-down from 35S-labelled PC-3 cell lysate, SDS-gel, fluorography
[1] = target: T1, GST-PDZ 2-3 (glutathione S-transferase …)
Description: (§1) PC-3 cells were obtained from American Type Culture Collection (Rockville, Md.) and cultured as described (Saras et al., 1994). Metabolic labeling of PC-3 cells was performed for 4 h in methionine-and cysteine-free MCDB 104 medium (Gibco/Life Technologies, Gaithersburg, Md.) with […] of ³⁵S-methionine and ³⁵S-cysteine (in vivo labeling mix; Amersham, Arlington Heights, Ill.). After labeling, the cells were solubilized in buffer containing 20 mM Tris-HCI, pH 7.4,150 mM NaCl, 10 mM EDTA, 0.5% Triton X-100, 0.5% deoxycholate, 1 mM dithiothreitol, 1.5% Trasylol (Bayer, Germany) and 1 mM phenylmethylsulfonyl fluoride (Sigma, St. Louis, Mo.). After 15 min on ice, cell debris was removed by centrifugation. Samples (1 ml) were then incubated for 1.5 h at 4° C. with 10 μg of GST-PDZ fusion proteins bound to glutathione-Sepharose 4B beads (Pharmacia). The beads were pelleted and washed four times with solubilization buffer. The protein complexes were eluted by boiling for 5 min in SDS-sample buffer (100 mM Tris-HCI, pH 8.8, 0.01% bromophenol blue, 36% glycerol, 4% SDS, 10 mM dithiothreitol) and analyzed by SDS-gel electrophoresis using 5-12% polyacrylamide gels (Blobel and Dobberstein, J. Cell Biol. 67:835-851, 1975). The gel was fixed, incubated with Amplify (Amersham) for 20 min, dried and subjected to fluorography.

[2] = target: T2, GST-PDZ 5 (glutathione S-transferase …)
Description: as §1

[3] = target: B1
Description: as §1

| Binder | binding result [1] | binding result [2] | binding result [3] |
| --- | --- | --- | --- |
| B1 | no binding (tested: 10 µg of GST-PDZ fusion protein) | no binding (tested: 10 µg of GST-PDZ fusion protein) | – |
| B2 | – | – | no binding (tested: 10 µg of GST-PDZ fusion protein) |
| B3 | – | – | no binding (tested: 10 µg of GST-PDZ fusion protein) |
